Results: paper PMC6053351 (2017)

What was measured:
Test in all cases: ITC
[1] = target: RBBP4 Glu126Ala/Asn128Ala/Glu179Ala (UniProt Q09028 1-425, Glu126Ala | Asn128Ala | Glu179Ala)
RBBP4 Glu231Ala = RBBP4 Glu231Ala (UniProt Q09028 1-425, Glu231Ala)
[2] = target: RBBP4, full-length, wild type (UniProt Q09028 1-425)
RBBP4, full-length, wild type, sequence (Q09028 whole entry): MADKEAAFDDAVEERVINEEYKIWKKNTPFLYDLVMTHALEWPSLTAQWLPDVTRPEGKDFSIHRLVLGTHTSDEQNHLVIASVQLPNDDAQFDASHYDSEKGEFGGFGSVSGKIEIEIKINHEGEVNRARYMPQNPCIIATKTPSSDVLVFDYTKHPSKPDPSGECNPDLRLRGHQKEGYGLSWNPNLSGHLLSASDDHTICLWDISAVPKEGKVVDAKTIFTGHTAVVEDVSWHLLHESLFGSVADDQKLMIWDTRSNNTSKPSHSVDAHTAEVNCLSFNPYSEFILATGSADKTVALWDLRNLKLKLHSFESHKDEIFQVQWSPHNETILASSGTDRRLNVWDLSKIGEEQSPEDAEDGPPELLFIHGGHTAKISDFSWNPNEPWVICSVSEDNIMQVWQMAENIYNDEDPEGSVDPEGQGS

RBBP4 Glu231Ala, sequence (Q09028 whole entry E231A): as the sequence (Q09028 whole entry) above, with E231A counted along it
RBBP4 Glu126Ala/Asn128Ala/Glu179Ala, sequence (Q09028 whole entry E126A/N128A/E179A): as the sequence (Q09028 whole entry) above, with E126A, N128A, E179A counted along it

Row | Kd [1] | Kd (RBBP4 Glu231Ala) | Kd [2] | Binder
1 | 56.8 µM | 38.5 µM |  | KRRKLKNKRRRS [AEBP2_(379–390) peptide (RRK-rich motif, residues Lys379–Ser390)]
2 |  |  | 178 µM | KARALKNKRRRS [AEBP2_(379–390) peptide with mutations Arg380Ala/Lys382Ala]
